B1: αN-catenin residues 535-787 fused to the GAL4-DBD (plasmid pGBT9ANCTN(PstI 1618-2375)) (other, UniProt P04386 1-147, looked up)
chain: MKLLSSIEQACDICRLKKLKCSKEKPKCAKCLKNNWECRYSPKTKRSPLTRAHLTEVESRLERLEQLFLLIFPREDLDMILKMDSLQDIKALLTGLFVQDNVNKDAVTDRLASVETDMPLTLRQHRISATSSSEESSNKGQRQLTVSTLDRTAGAIRGRAARVIHIINAEMENYEAGVYTEKVLEATKLLSETVMPRFAEQVEVAIEALSANVPQPFEENEFIDASRLVYDGVRDIRKAVLMIRTPEELEDDSDFEQEDYDVRSRTSVQTEDDQLIAGQSARAIMAQLPQEEKAKIAEQVEIFHQEKSKLDAEVAKWDDSGNDIIVLAKQMCMIMMEMTDFTRGKGPLKNTSDVINAAKKIAEAGSRMDKLARAVADQCPDSACKQDLLAYLQRIALYCH
B2: ANC-2H01/BamHI (amino-terminal part of the ANC-2H01 clone plus two of the nine zinc fingers, fused to the GAL4-AD in pGAD10) (other, not shown: large carriers)
chain: IADGFNGIFSDHCYSVCSMRQPDLKYFDNKDDDSDTETSNDLPKFADGIKARNRNQNYLVPSPVLRILDHTAFSTEKSADIVICDEECDSPESVNQQTQEESPIEVHTAEDVPIAVEVHAISEDYDIETENNSSESLQDQTDEEPPAKLCKILDKSQALNVTAQQKWPLLRANSSGLYKCELCEFNSKYFSDLKQHMILKHKRTDSNVCRVCKESFSTNMLLIEHAKLHEEDP
notes: 700-bp BamHI fragment of the initial clone; only the stated part stood in the assay; also called pGAD10ANC-2H01/BamHI
B3: αN-catenin residues 4-193 fused to the GAL4-DBD (plasmid pGBT9ANCTN(EcoRI-BamHI)) (other, UniProt P04386 1-147, looked up)
chain: MKLLSSIEQACDICRLKKLKCSKEKPKCAKCLKNNWECRYSPKTKRSPLTRAHLTEVESRLERLEQLFLLIFPREDLDMILKMDSLQDIKALLTGLFVQDNVNKDAVTDRLASVETDMPLTLRQHRISATSSSEESSNKGQRQLTVSATSPIILKWDPKSLEIRTLTVERLLEPLVTQVTTLVNTSNKGPSGKKKGRSKKAHVLAASVEQATQNFLEKGEQIAKESQDLKEELVAAVEDVRKQGETMRIASSEFADDPCSSVKRGTMVRAARALLSAVTRLLILADMADVMRLLSHLKIVEEALEAVKNATNEQDLANRFKEFGKEMVKLNYVAARR
B4: ANC-2H01/600 (amino-terminal part of the initial ANC-2H01 plus half of the first zinc finger, fused to the GAL4-AD in pGAD10) (other, not shown: large carriers)
chain: IADGFNGIFSDHCYSVCSMRQPDLKYFDNKDDDSDTETSNDLPKFADGIKARNRNQNYLVPSPVLRILDHTAFSTEKSADIVICDEECDSPESVNQQTQEESPIEVHTAEDVPIAVEVHAISEDYDIETENNSSESLQDQTDEEPPAKLCKILDKSQALNVTAQQKWPLLRANSSGLYKCELCEFNSKY
notes: whole entry named, only the stated part stood in the assay
B5: zinc fingers 4 to 5 of ANC-2H01 fused to the GAL4-AD (plasmid pACT2ANC2H01-ZF4-5) (other, not shown: large carriers)
chain: LYWCEQCDVQFSSSSELYLHFQEHSCDEQYLCQFCEHETNDPEDLHSHVVNEHACKLIELSDK
notes: also called pACT2ANC2H01Zn4-5
B6: zinc fingers 1 to 5 of ANC-2H01 fused to the GAL4-AD (plasmid pACT2ANC2H01ZF1-5) (other, not shown: large carriers)
chain: LYKCELCEFNSKYFSDLKQHMILKHKRTDSNVCRVCKESFSTNMLLIEHAKLHEEDPYICKYCDYKTVIFENLSQHIADTHFSDHLYWCEQCDVQFSSSSELYLHFQEHSCDEQYLCQFCEHETNDPEDLHSHVVNEHACKLIELSDK
B7: ANC-2H01 initial two-hybrid clone (part of ANC-2H01 fused to the GAL4-AD, plasmid pGAD10ANC2H01) (other, not shown: large carriers)
chain: IADGFNGIFSDHCYSVCSMRQPDLKYFDNKDDDSDTETSNDLPKFADGIKARNRNQNYLVPSPVLRILDHTAFSTEKSADIVICDEECDSPESVNQQTQEESPIEVHTAEDVPIAVEVHAISEDYDIETENNSSESLQDQTDEEPPAKLCKILDKSQALNVTAQQKWPLLRANSSGLYKCELCEFNSKYFSDLKQHMILKHKRTDSNVCRVCKESFSTNMLLIEHAKLHEEDPYICKYCDYKTVIFENLSQHIADTHFSDHLYWCEQCDVQFSSSSELYLHFQEHSCDEQYLCQFCEHETNDPEDLHSHVVNEHACKLIELSDKYNNGEHGQYSLLSKITFDKCKNFFVCQVCGFRSRLHTNVNRHVAIEHTKIFPHVCDDCGKGFSSMLEYCKHLNSHLSEGIYLCQYCEYSTGQIEDLKIHLDFKHSADLPHKCSDCLMRFGNERELISHLPVHETT
notes: 27-485 is derived from 459 of 485 residues; also called ANC-2H01 clone; initial ANC-2H01 two-hybrid clone
B8: zinc fingers 1 to 3 of ANC-2H01 fused to the GAL4-AD (plasmid pACT2ANC2H01ZF1-3) (other, not shown: large carriers)
chain: LYKCELCEFNSKYFSDLKQHMILKHKRTDSNVCRVCKESFSTNMLLIEHAKLHEEDPYICKYCDYKTVIFENLSQHIADTHFSDHL
B9: E-tagged full-length ANC-2H01 protein (expression plasmid pEFBOSANC-2H01E), expressed in HEK293T cells (other)
chain: MNEYPKKRKRKTLHPSRYSDSSGISRIADGFNGIFSDHCYSVCSMRQPDLKYFDNKDDDSDTETSNDLPKFADGIKARNRNQNYLVPSPVLRILDHTAFSTEKSADIVICDEECDSPESVNQQTQEESPIEVHTAEDVPIAVEVHAISEDYDIETENNSSESLQDQTDEEPPAKLCKILDKSQALNVTAQQKWPLLRANSSGLYKCELCEFNSKYFSDLKQHMILKHKRTDSNVCRVCKESFSTNMLLIEHAKLHEEDPYICKYCDYKTVIFENLSQHIADTHFSDHLYWCEQCDVQFSSSSELYLHFQEHSCDEQYLCQFCEHETNDPEDLHSHVVNEHACKLIELSDKYNNGEHGQYSLLSKITFDKCKNFFVCQVCGFRSRLHTNVNRHVAIEHTKIFPHVCDDCGKGFSSMLEYCKHLNSHLSEGIYLCQYCEYSTGQIEDLKIHLDFKHSADLPHKCSDCLMRFGNERELISHLPVHETT
notes: also called pEFBOS-EANC-2H01; E-tagged ANC-2H01; not shown: E-tag derived from plasmid pCANTAB5E (Pharmacia), at the amino-terminal side
B10: about full-length ANC-2H01 fused to the GAL4-AD (plasmid pGAD424ANC-2H01-FL) (other, not shown: large carriers)
chain: B9 chain
B11: ANC-2H01/500 (amino-terminal part of ANC-2H01 lacking any functional zinc finger, fused to the GAL4-AD in pGAD10) (other, not shown: large carriers)
chain: IADGFNGIFSDHCYSVCSMRQPDLKYFDNKDDDSDTETSNDLPKFADGIKARNRNQNYLVPSPVLRILDHTAFSTEKSADIVICDEECDSPESVNQQTQEESPIEVHTAEDVPIAVEVHAISEDYDIETENNSSESLQDQTDEEPPAKLCKILDKSQALNVTAQQKW
notes: as for B4

How the values were obtained:
[1] = biological target: B7; experiment: yeast two-hybrid (FIG. 4)
[2] = biological target: B1; experiment: yeast two-hybrid (FIG. 4)
[3] = biological target: B3; experiment: yeast two-hybrid (FIG. 4)
[4] = biological target: αN-catenin residues 4-535 fused to the GAL4-DBD (plasmid pGBT9ANCTN(EcoRI-PstI)) (human, UniProt P04386 1-147; P26232 4-535); experiment: yeast two-hybrid (FIG. 4)
[5] = biological target: T1, αN-catenin residues 543-906 fused to the GAL4-DBD (plasmid pGBT9ANCTN-(XhoI-SalI)) (human, UniProt P04386 1-147; P26232 543-906); experiment: yeast two-hybrid (FIG. 4)
T1 construct: the UniProt canonical isoform differs near the C-terminus

[6] = biological target: T2, human αN-catenin fused to the GAL4-DBD in pGBT9 (plasmid pGBT9ANCTN) (human, UniProt P04386 1-147; P26232 4-905, limits assumed); experiment: yeast two-hybrid (FIG. 4)
T2 construct: Construction of pGBT9ANCTN is not described; also called pGBT9αNCTN; pGBT9-αNCTN

[7] = biological target: T3, human αE-catenin fused to the GAL4-DBD (plasmid pGBT9αECTN) (human, UniProt P04386 1-147; P35221 1-906, limits assumed); experiment: yeast two-hybrid, strain HF7c (FIG. 4)
T3 construct: also called full-length αE-catenin

[8] = biological target: T2, human αN-catenin fused to the GAL4-DBD …; experiment: yeast two-hybrid, strain Y190 (FIG. 16)
[9] = biological target: T4, human αE-catenin (full-length; expressed from pJ6αECTN in HEK293T cells, also endogenous in HEK293T) (human, UniProt P35221 1-906); experiment: co-immunoprecipitation from cotransfected HEK293T cells, Western blot
T4 construct: also called PJ6αECTN(37-3433); pJ6αE-catenin
T4 sequence (looked up): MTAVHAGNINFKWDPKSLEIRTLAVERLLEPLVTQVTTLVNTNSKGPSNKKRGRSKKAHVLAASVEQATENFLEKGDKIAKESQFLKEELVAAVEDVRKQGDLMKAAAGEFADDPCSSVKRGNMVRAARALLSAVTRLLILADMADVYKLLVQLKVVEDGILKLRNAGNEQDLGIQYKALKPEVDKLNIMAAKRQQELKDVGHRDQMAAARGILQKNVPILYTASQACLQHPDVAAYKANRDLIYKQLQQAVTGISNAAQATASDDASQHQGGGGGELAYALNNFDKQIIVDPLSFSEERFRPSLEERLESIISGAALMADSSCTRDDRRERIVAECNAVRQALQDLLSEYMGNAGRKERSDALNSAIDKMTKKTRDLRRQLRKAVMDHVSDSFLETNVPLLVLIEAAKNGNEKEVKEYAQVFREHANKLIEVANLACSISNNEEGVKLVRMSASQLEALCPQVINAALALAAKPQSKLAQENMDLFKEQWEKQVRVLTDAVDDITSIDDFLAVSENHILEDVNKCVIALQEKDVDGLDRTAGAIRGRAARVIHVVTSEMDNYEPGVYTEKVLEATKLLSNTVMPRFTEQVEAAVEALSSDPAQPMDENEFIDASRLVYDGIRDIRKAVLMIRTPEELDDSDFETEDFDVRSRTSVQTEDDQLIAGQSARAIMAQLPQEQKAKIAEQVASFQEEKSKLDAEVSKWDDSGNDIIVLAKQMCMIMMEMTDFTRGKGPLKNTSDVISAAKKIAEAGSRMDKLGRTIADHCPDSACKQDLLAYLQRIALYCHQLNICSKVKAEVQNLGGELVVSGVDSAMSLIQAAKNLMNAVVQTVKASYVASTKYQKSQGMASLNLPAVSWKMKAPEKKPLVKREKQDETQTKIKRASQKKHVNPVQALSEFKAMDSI

[10] = biological target: T3, human αE-catenin fused to the GAL4-DBD …; experiment: yeast two-hybrid, strain Y190, HIS3 and LacZ reporters (FIG. 11)

B1: no binding [1].

B2: no binding [2]; no binding [3]; no binding [4]. B2: no binding [5]; no binding [6]; no binding [7].

B3: no binding [1].

B4: no binding [2]; no binding [3]; no binding [4]. B4: no binding [5]; no binding [6]; no binding [7].

B5: no binding [8].

B6: no binding [8].

B7: no binding [5]; no binding [7].

B8: no binding [8].

B9: no binding [9].

B10: no binding [10].

B11: no binding [2]; no binding [3]; no binding [4]. B11: no binding [5]; no binding [6]; no binding [7].
